Common to all, as to experiment: SPR; Biacore T200; antibody captured on anti-human Fc (CM5 chip); CD30-MBP flowed at 0, 2, 20 nM (T426: 0, 20, 200 nM), contact 90 s, dissociation 300 s; fit to a 1:1 binding mode; rough-level analysis
Holding throughout (conditions): both partners purified
On the technique in general: In SPR one partner is held on a chip, and binding of the other changes the refractive index at the surface.

One experiment has as its target T1, BpT25-427.
T1 construct: T25 Fv, N side; T427 Fv, C side; one Fab of each Fv; knobs-into-holes Fc; source: Expi293 fragments joined by intein-mediated protein trans-splicing, purified (Superdex 200 Increase); copies: + + +

The target of a further experiment is T2, BpT107-104.
T2 construct: T107 Fv, N side; T104 Fv, C side; one Fab of each Fv; knobs-into-holes Fc; source: Expi293 fragments joined by intein-mediated protein trans-splicing, purified (Superdex 200 Increase); copies: + + +
T2 sequence (chain, as listed by the source, chain 1 of 4): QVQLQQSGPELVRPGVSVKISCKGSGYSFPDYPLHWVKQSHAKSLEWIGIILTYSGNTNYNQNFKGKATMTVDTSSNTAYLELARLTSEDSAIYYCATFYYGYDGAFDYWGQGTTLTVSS
T2 sequence (chain, as listed by the source, chain 2 of 4): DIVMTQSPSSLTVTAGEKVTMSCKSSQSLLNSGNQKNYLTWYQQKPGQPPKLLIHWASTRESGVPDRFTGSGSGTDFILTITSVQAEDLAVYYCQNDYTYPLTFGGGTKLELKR
T2 sequence (chain, as listed by the source, chain 3 of 4): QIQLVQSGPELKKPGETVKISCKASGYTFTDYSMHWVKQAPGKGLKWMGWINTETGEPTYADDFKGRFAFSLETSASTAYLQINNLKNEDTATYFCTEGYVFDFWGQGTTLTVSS
T2 sequence (chain, as listed by the source, chain 4 of 4): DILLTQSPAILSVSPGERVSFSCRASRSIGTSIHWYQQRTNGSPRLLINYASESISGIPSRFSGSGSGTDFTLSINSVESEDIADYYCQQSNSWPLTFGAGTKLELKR

The next experiment has as its target T3, BpT427-6.
T3 construct: T427 Fv, N side; T6 Fv, C side; one Fab of each Fv; knobs-into-holes Fc; source: Expi293 fragments joined by intein-mediated protein trans-splicing, purified (Superdex 200 Increase); copies: + + +

For the next experiment, the target named is T4, BpT10-405.
T4 construct: AC10 Fv, N side; T405 Fv, C side; one Fab of each Fv; knobs-into-holes Fc; source: Expi293 fragments joined by intein-mediated protein trans-splicing, purified (Superdex 200 Increase); copies: + + +

A further experiment addresses T5, BpT427-405.
T5 construct: T427 Fv, N side; T405 Fv, C side; one Fab of each Fv; knobs-into-holes Fc; source: Expi293 fragments joined by intein-mediated protein trans-splicing, purified (Superdex 200 Increase); copies: + + +

A further experiment has as its target T6, BpT105-107.
T6 construct: T105 Fv, N side; T107 Fv, C side; one Fab of each Fv; knobs-into-holes Fc; source: Expi293 fragments joined by intein-mediated protein trans-splicing, purified (Superdex 200 Increase); copies: + + +

The next experiment deals with T7, BpT25-6.
T7 construct: T25 Fv, N side; T6 Fv, C side; one Fab of each Fv; knobs-into-holes Fc; source: Expi293 fragments joined by intein-mediated protein trans-splicing, purified (Superdex 200 Increase); copies: + + +
T7 sequence (chain, as listed by the source, chain 1 of 4): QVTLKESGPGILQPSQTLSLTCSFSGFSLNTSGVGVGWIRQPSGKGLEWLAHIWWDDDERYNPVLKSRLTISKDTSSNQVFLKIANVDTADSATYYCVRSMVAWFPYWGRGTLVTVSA
T7 sequence (chain, as listed by the source, chain 2 of 4): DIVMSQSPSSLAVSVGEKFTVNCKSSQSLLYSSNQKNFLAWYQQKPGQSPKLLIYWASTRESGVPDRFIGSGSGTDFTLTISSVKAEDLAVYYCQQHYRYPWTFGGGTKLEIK
T7 sequence (chain, as listed by the source, chain 3 of 4): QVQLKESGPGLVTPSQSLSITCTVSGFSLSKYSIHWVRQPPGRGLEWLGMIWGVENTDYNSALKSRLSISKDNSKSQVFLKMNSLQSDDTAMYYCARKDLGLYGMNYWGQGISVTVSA
T7 sequence (chain, as listed by the source, chain 4 of 4): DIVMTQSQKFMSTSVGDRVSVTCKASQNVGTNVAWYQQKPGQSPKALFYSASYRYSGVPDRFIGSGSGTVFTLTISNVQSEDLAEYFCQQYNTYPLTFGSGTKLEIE

A further experiment has as its target T8, BpT104-405.
T8 construct: T104 Fv, N side; T405 Fv, C side; one Fab of each Fv; knobs-into-holes Fc; source: Expi293 fragments joined by intein-mediated protein trans-splicing, purified (Superdex 200 Increase); copies: + + +

A further experiment concerns the target T9, BpT107-25.
T9 construct: T107 Fv, N side; T25 Fv, C side; one Fab of each Fv; knobs-into-holes Fc; source: Expi293 fragments joined by intein-mediated protein trans-splicing, purified (Superdex 200 Increase); copies: + + +

T3 sequence (chain, as listed by the source, chain 1 of 4): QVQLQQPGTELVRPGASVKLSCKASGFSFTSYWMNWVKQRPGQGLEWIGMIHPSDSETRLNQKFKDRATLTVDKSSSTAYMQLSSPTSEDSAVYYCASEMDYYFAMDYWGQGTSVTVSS
T3 sequence (chain, as listed by the source, chain 2 of 4): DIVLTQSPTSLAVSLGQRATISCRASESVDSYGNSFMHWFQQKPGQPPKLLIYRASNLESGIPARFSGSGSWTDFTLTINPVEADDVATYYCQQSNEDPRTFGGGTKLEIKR
T6 sequence (chain, as listed by the source, chain 1 of 4): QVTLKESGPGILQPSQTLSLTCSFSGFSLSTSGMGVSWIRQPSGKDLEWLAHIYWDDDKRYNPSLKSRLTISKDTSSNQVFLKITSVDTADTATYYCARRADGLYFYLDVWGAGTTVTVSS
T6 sequence (chain, as listed by the source, chain 2 of 4): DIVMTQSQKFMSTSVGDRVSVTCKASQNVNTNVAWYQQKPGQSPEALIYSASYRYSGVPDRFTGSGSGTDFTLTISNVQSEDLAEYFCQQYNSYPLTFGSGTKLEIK

B1: Maltose-binding protein-fused CD30 (domain or fragment)
chain: FPQDRPFEDTCHGNPSHYYDKAVRRCCYRCPMGLFPTQQCPQRPTDCRKQCEPDYYLDEADRCTACVTCSRDDLVEKTPCAWNSSRVCECRPGMFCSTSAVNSCARCFFHSVCPAGMIVKFPGTAQKNTVCEPASPGVSPACASPENCKEPSSGTIPQAKPTPVSPATSSASTMPVRGGTRLAQEAASKLTRAPDSPSSVGRPSSDPGLSPTQPCPEGSGDCRKQCEPDYYLDEAGRCTACVSCSRDDLVEKTPCAWNSSRTCECRPGMICATSATNSCARCVPYPICAAETVTKPQDMAEKDTTFEAPPLGTQPDCN
modifications: Construct 1-336 includes signal peptide 1-18, taken as cleaved on secretion; C-terminal MBP carrier and His tag left out; disulfide-bonded, likely glycosylated (Expi293)
For the molecule B1, the dissociation constant (Kd) – broadly, the constant that tells how readily two partners part at equilibrium – turned out to be 0.57 nM with BpT25-427; 0.4 nM with BpT107-104; 0.26 nM in the experiment with BpT427-6; 0.63 nM in the experiment with BpT10-405; 0.31 nM with BpT427-405; 0.26 nM with BpT105-107. The Kd with BpT25-6 is 0.46 nM; with BpT104-405 it was 48 nM; in the experiment with BpT107-25, 0.87 nM.

Source of the values: paper PMC11826918, “Generation of antagonistic biparatopic anti-CD30 antibody from an agonistic antibody by precise epitope determination and utilization of structural characteristics of CD30 molecule” (Antibody Therapeutics, 2025).
